From paper PMC12785155, “Phytochrome B stabilizes the KNOX transcription factor BP/KNAT1 to promote light-initiated seed germination in Arabidopsis thaliana”

T1: BP/KNAT1 (B…US) (Arabidopsis thaliana, UniProt P46639 1-398)
T1 sequence: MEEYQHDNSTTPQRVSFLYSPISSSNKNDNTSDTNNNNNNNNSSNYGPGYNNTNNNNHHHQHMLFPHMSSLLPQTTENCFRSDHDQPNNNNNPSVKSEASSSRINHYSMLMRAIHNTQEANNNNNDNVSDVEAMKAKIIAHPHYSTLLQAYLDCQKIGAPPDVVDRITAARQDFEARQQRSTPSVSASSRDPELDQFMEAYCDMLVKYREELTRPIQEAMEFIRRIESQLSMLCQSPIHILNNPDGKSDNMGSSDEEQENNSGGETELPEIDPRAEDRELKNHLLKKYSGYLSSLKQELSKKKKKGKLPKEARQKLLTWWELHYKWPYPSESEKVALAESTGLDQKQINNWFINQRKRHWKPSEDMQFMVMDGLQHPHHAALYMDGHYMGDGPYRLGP

B1: NCED6 probe (dsDNA)
DNA 1: TAGCCGGACATCATTTATTTGACGGTGACGGAATGATTCACGCCGTTA
DNA 2: TAACGGCGTGAATCATTCCGTCACCGTCAAATAAATGATGTCCGGCTA
B2: NCED6-M mutant competitor (dsDNA)
DNA 1: TAGCCGGACATCATTTATTAAAAGGAAAAGGAATGATTCACGCCGTTA
DNA 2: TAACGGCGTGAATCATTCCTTTTCCTTTTAATAAATGATGTCCGGCTA
B3: NCED9 probe (dsDNA)
DNA 1: CATTACACTTTTTTAAAATGACTGGAATGCATGACGTTTGGGCAC
DNA 2: GTGCCCAAACGTCATGCATTCCAGTCATTTTAAAAAAGTGTAATG
B4: NCED9-M mutant competitor (dsDNA)
DNA 1: CATTACACTTTTTTAAAAAAAATGGAATGCAAAAAGTTTGGGCAC
DNA 2: GTGCCCAAACTTTTTGCATTCCATTTTTTTTAAAAAAGTGTAATG

How the values were obtained:
BP/KNAT1 (B…US) [1] = target: T1, BP/KNAT1 (B…US); test: EMSA; excess unlabeled probe reduced binding; LightShift Chemiluminescent EMSA kit; 0.5 ug BP-His with biotin-labeled probe, 20 min at room temperature, 6% polyacrylamide gel; buffer, salt and pH not stated; conditions: protein: recombinant; tags: His (pET32a, per Methods); Results text says BP-MBP; label: biotin (both strands, per oligo names); blunt
BP/KNAT1 (B…US) [2] = target: T1, BP/KNAT1 (B…US); test: competition; excess unlabeled mutant vs biotin-labeled NCED6 probe; did not effectively reduce binding; LightShift Chemiluminescent EMSA kit; 0.5 ug BP-His with biotin-labeled probe, 20 min at room temperature, 6% polyacrylamide gel; buffer, salt and pH not stated; conditions: protein: recombinant; tags: His (pET32a, per Methods); Results text says BP-MBP; blunt
BP/KNAT1 (B…US) [3] = target: T1, BP/KNAT1 (B…US); test: competition; excess unlabeled mutant vs biotin-labeled NCED9 probe; did not effectively reduce binding; LightShift Chemiluminescent EMSA kit; 0.5 ug BP-His with biotin-labeled probe, 20 min at room temperature, 6% polyacrylamide gel; buffer, salt and pH not stated; conditions: protein: recombinant; tags: His (pET32a, per Methods); Results text says BP-MBP; blunt

Binder	binding result (BP/KNAT1 (B…US) [1])	other results
B1	binds	–
B2	–	binding result (BP/KNAT1 (B…US) [2]): no binding
B3	binds	–
B4	–	binding result (BP/KNAT1 (B…US) [3]): no binding
